According to the supplement of paper PMC5998384:

Columns and labels:
HeLa Kyoto [1] = assay: solubility in G1/S (NP-40 vs SDS abundance) (log2 ratio); higher = more soluble; details: cell cycle stage: G1/S
HeLa Kyoto [2] = assay: thermal stability score vs G1/S (z-score of summed log2 fold changes over temperatures); higher = more thermally stable than in G1/S
HeLa Kyoto [3] = assay: melting temperature (median over replicates), in situ; higher = more thermally stable
HeLa Kyoto [4] = assay: solubility change mitosis vs G1/S (difference of NP-40 vs SDS log2 ratios) (log2 ratio difference); higher = more soluble in mitosis
[5] = cell cycle stage: early G1 (4.5 h after nocodazole release)
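Throughout, for melting temperature (median over replicates), in situ: HeLa Kyoto cells synchronized by double thymidine or nocodazole block, proteins quantified by TMT10plex mass spectrometry, three independent biological replicates.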
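Throughout, for solubility change mitosis vs G1/S (difference of NP-40 vs SDS log2 ratios): synchronized HeLa Kyoto cells (double thymidine block for G1/S, nocodazole release for mitosis), protein amounts in NP-40 versus SDS lysates quantified by mass spectrometry, three biological replicates.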
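Throughout, for solubility in G1/S (NP-40 vs SDS abundance): HeLa Kyoto cells arrested at G1/S by double thymidine block, proteins quantified by TMT10plex mass spectrometry in mild NP-40 versus SDS extracts, three biological replicates.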
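Throughout, for thermal stability score vs G1/S (z-score of summed log2 fold changes over temperatures): synchronized HeLa Kyoto cells, proteins quantified by TMT10plex mass spectrometry, three biological replicates, mitosis taken 0.5 h after nocodazole release, G1/S directly after double thymidine block.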

Chain of PRRC2A (chain, as listed by the source): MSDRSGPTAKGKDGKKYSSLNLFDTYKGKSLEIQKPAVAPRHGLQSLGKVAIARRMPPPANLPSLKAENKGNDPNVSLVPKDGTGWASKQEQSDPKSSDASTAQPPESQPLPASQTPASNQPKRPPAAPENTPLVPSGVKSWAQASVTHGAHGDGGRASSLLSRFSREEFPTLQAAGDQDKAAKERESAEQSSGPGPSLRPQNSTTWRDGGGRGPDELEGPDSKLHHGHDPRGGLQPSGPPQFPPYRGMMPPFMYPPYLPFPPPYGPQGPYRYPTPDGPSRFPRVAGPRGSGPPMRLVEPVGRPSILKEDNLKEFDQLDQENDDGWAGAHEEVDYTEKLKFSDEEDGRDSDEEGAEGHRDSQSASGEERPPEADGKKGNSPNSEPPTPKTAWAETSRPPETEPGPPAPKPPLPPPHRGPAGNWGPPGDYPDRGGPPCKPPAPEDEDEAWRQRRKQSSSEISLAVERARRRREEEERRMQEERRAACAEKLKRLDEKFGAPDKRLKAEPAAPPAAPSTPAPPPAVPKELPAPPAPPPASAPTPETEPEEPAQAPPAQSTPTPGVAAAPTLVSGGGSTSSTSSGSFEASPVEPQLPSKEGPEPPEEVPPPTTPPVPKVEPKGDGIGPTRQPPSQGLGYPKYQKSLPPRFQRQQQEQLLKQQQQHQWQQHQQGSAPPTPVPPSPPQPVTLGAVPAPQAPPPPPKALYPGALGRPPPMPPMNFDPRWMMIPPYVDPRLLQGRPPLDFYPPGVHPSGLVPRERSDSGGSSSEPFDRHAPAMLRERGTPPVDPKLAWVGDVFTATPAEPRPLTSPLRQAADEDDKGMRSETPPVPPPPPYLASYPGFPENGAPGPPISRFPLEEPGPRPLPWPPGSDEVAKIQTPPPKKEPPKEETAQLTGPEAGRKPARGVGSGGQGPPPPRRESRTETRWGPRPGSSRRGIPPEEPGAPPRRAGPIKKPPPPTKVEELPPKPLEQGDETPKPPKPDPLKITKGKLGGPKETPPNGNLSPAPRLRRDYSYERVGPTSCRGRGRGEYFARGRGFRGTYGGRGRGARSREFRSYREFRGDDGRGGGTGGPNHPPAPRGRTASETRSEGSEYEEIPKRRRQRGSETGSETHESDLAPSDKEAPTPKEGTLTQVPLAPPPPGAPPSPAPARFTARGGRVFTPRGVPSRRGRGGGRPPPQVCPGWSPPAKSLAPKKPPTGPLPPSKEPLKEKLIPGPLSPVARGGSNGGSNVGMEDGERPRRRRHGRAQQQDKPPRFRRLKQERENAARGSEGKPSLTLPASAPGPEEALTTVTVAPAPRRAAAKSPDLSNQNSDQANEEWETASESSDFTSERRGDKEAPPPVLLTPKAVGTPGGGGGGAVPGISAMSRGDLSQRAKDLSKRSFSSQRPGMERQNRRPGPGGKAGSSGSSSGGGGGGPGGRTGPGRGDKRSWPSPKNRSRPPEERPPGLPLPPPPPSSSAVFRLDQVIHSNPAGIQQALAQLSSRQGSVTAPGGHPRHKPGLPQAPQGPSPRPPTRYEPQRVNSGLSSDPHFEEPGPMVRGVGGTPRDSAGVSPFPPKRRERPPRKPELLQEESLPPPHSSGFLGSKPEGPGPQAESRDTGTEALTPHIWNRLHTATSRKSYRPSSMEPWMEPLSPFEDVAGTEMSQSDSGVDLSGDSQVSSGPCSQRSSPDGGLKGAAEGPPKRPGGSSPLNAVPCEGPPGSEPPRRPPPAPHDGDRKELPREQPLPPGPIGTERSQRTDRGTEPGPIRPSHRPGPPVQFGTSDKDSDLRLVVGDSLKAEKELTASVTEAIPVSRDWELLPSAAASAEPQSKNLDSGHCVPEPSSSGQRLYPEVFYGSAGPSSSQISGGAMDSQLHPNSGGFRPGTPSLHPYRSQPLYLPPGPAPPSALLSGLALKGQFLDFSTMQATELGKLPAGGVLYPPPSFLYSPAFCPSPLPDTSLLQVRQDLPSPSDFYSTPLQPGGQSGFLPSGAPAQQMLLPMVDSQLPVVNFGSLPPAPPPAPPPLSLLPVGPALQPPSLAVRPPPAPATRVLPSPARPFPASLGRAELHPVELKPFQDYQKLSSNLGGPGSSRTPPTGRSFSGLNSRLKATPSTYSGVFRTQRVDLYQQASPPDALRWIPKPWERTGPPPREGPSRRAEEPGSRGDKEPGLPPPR
Chain of ZNF207 (chain, as listed by the source): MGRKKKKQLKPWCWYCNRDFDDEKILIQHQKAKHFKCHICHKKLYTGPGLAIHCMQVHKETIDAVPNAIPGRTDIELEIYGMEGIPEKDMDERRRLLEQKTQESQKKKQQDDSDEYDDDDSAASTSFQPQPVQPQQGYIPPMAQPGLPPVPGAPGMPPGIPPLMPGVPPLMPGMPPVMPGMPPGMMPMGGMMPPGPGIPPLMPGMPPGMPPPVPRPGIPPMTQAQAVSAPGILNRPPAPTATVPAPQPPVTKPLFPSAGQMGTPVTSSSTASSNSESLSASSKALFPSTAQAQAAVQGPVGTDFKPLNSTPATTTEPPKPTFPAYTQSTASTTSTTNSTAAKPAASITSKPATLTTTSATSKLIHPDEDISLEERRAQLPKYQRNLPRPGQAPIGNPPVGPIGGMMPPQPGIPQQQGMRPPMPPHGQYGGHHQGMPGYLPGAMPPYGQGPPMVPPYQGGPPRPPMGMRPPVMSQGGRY
Chain of POLD2 (chain, as listed by the source): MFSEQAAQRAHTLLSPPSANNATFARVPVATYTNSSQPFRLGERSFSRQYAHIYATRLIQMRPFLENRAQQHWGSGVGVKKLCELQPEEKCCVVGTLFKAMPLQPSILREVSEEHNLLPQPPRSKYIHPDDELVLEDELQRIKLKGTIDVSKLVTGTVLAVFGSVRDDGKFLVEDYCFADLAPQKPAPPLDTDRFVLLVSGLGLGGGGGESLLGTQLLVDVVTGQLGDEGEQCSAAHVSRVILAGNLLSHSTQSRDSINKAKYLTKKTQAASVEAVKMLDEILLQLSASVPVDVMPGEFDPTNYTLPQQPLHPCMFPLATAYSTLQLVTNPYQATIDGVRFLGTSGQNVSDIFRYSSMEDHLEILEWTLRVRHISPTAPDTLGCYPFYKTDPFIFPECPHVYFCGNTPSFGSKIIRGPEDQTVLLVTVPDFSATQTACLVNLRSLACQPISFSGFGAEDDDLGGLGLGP
Chain of RNGTT (chain, as listed by the source): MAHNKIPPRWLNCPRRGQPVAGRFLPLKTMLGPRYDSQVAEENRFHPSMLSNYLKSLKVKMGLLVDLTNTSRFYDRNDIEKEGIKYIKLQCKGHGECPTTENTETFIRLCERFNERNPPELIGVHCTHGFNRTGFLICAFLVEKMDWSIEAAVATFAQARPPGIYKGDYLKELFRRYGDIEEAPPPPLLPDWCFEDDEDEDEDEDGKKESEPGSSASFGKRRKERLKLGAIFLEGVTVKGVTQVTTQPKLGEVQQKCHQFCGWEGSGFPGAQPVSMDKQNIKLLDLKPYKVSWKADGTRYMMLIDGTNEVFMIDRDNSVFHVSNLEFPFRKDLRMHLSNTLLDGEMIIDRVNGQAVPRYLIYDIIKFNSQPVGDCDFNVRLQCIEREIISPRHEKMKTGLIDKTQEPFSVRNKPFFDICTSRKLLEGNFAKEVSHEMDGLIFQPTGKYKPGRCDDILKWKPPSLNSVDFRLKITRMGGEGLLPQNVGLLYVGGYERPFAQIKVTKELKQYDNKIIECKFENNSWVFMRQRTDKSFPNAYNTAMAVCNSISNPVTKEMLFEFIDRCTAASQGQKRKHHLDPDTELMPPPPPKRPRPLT
Chain of UBE2V2 (chain, as listed by the source): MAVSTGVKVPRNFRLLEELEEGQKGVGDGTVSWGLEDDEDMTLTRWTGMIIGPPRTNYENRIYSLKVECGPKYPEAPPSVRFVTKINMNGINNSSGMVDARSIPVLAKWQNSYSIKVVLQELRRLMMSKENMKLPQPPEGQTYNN

Substance	solubility in G1/S (log2) (HeLa Kyoto [1])	thermal stability score (HeLa Kyoto [2]; [5])	thermal stability score (HeLa Kyoto [2]; cell cycle stage: mitosis)	melting temperature (HeLa Kyoto [3]; cell cycle stage: G1/S) [°C]	melting temperature (HeLa Kyoto [3]; cell cycle stage: mitosis) [°C]	solubility change mitosis (log2) (HeLa Kyoto [4])
PKN2	-0.0314	0.95	1.36	48.3	49.3	-0.163
PLPP2	-0.0273	0.347	-1.64	55	54.3	-0.279
PLXNB2	-0.0357	-1.95	-2.08	52.2	51.1	-0.0477
PLXND1	0.0061	0.367	0.672	49.5	48.7	-0.0638
POLD2	0.263	1.48	2.07	49.9	49.5	-0.136
POLE	-0.355	0.724	1.31	49.5	51.5	-0.0472
PRRC2A	-0.105	0.422	0.00992	53.7	55.1	0.0463
RIF1	-0.28	2.16	5.52	47.3	49.6	0.0253
RNGTT	-0.301	0.407	0.579	47.7	48.7	-0.0839
SAR1A	0.207	2.01	1.85	52	52.8	-0.239
SDE2	0.563	2.03	1.98	49.5	49.5	0.0378
SEPHS1	0.503	-1.3	-1.24	58.8	58.8	-0.0554
SETD2	-0.43	0.914	2.05	48.1	50.2	0.19
SLC15A4	0.0784	-2.84	-2.51	55.4	56.5	-0.171
SLC27A2	-0.335	2.25	2.44	50	50.3	-0.133
SMG1	-0.17	-0.61	-0.143	50.3	50.2	-0.102
SNRNP200	-0.756	2.93	4.86	50	50.8	0.171
THOC2	-0.681	-3.49	-0.552	48.6	49.5	0.221
TOR1AIP1	-0.0913	1.27	1.41	54.4	54.9	0.144

Substance	solubility in G1/S (log2) (HeLa Kyoto [1])	thermal stability score (HeLa Kyoto [2]; [5])	thermal stability score (HeLa Kyoto [2]; cell cycle stage: mitosis)	melting temperature (HeLa Kyoto [3]; cell cycle stage: G1/S) [°C]	melting temperature (HeLa Kyoto [3]; cell cycle stage: mitosis) [°C]	solubility change mitosis (log2) (HeLa Kyoto [4])
TPR	-0.23	-1.4	0.657	50.3	50.8	0.191
TRPM7	-0.312	0.936	0.742	51.6	51.4	-0.0119
TSC2	-0.16	0.00265	0.786	49.6	50.9	-0.0844
TSR3	0.0751	0.927	-0.253	54.3	54.3	-0.12
UBE2V2	0.464	0.348	-0.815	52.5	52.9	0.122
UBR2	-0.361	0.798	1.58	49.9	49.8	-0.184
UGGT2	-0.222	2.37	4.53	54	54.1	-0.15
UNC119B	0.268	-0.908	-0.273	50.6	50.3	-0.089
USP34	-0.314	0.493	1.73	49.5	50.2	-0.0816
UTRN	0.0106	0.795	1.84	49	48.5	-0.109
WBSCR16	-0.259	0.481	-0.564	53.6	52.7	-0.168
WDR48	-0.162	3.81	2.36	52.5	53.9	-0.036
WIZ	-0.0213	0.511	-0.305	50.4	50.8	0.321
XRN1	-0.345	0.741	0.939	49	48.5	-0.0622
ZC3H13	-0.595	0.124	2.39	49.5	50.7	0.414
ZCCHC11	-0.0583	0.72	1.31	50.6	49.4	-0.11
ZNF207	0.0156	-5.35	-6.05	55.8	55.4	0.36
ZNF638	-0.709	1.39	4.74	48.1	50.2	0.363
ZSWIM8	-0.162	0.66	1.55	49.2	49	-0.0253
